Experimental data taken from PMC3791407, “Structural Rearrangement in an RsmA/CsrA Ortholog of Pseudomonas aeruginosa Creates a Dimeric RNA-Binding Protein, RsmN”.
Where two headings read alike, the source gives them in different places.

Experiments:
[1] = molecular target: RsmN (Pseudomonas aeruginosa PAO1) (UniProt Q02EI1); test: ITC
[2] = molecular target: RsmN R62A (Pseudomonas aeruginosa PAO1) (UniProt Q02EI1); test: ITC; settings: ITC: 125 uM RNA titrated into protein, 25 mM potassium phosphate pH 7, 50 mM NaCl, 298 K; SEC: 50 uM protein, 100 uM RNA, same buffer
[3] = molecular target: RsmN (His6-Thb-RsmN) (Pseudomonas aeruginosa PAO1); test: SEC + native MS; gel filtration analysis and ESI-MS of the purified His-tagged RsmN construct; conditions in the Supplemental Information
RsmA = RsmA (UniProt O69078 1-61); test: ITC; 1 hairpin per monomer; ITC: 125 uM RNA titrated into protein, 25 mM potassium phosphate pH 7, 50 mM NaCl, 298 K; SEC: 50 uM protein, 100 uM RNA, same buffer; settings: protein: recombinant, tags: N-terminal His6-thrombin site (LVPRGS), chain copies: 2, 6-nt loop AAGGAU, G5-C12 closing pair

Molecule GCGCAGGAAGCGC [RsmY-1 hairpin] has a Kd [1] of 526 nM.

With CCCCGAAGGAUCGGGG [RsmZ-2 hairpin] the Kd ([1]; ITC: 125 uM RNA titrated into protein, 25 mM potassium phosphate pH 7, 50 mM NaCl, 298 K, SEC: 50 uM protein, 100 uM RNA, same buffer) was 276 nM and the binding signal (fold lower affinity than wild type) [2] was > 1000.

For RsmN (His6-Thb-RsmN) (natural protein), the stoichiometry N [3] was 2.

With “UAAAAGGAAUA [PA1003/pqsR ribosome binding site]” the Kd [1] was 704 nM.

CCCCGAAGGAUCGGGG (structured_RNA) [RsmZ-2 hairpin] showed a Kd (RsmA) of 264 ± 43 nM.
